Measurements reported in article PMC6430559, “Antigenicity and Immunogenicity of Differentially Glycosylated Hepatitis C Virus E2 Envelope Proteins Expressed in Mammalian and Insect Cells” (Journal of Virology, 2019).

B1: Human monoclonal antibody (HMAb) HC33.1, specific for antigenic domain E of HCV E2 (antibody, V domains shown)
VH: EVQLVESGGGLVQPGGSLRLSCVASGLTFTNFAVSWVRQAPGKGLEWVSAISSSDGSTYYSDSVKGRFTISRDSSMNTLYLQMDSLRVEDTAVYFCARAVVSSDITYTYWSKYFDYWGQGTLVTVSS
VL: QSVVTQPPSVSAAPGQKVTISCSGGSFNIGNNYVSWYQQLPGTAPKLLIYDNDNRPSGIPDRFSGSKSGTSATLDITGLQTGDEADYYCGTWDSSLNVVVFGGGTKLTVL
B2: Human CD81 large extracellular loop (CD81-LEL; CD81 residues 113 to 201) (domain or fragment, UniProt P60033 113-201, looked up)
chain: FVNKDQIAKDVKQFYDQALQQAVVDDDANNAKAVVKTFHETLDCCGSSTLTALTTSVLKNNLCPSGSNIISNLFKEDCHQKIDDLFSGK
notes: human CD81 large extracellular loop, residues 113 to 201; Cloned into the vector pHLsec (Addgene plasmid #99845 is the vector); The C-terminal His6 tag was stripped with carboxypeptidase A-agarose before biolayer interferometry; also called recombinant CD81; source: FreeStyle HEK293-F cells, transfected, secreted; purified from culture supernatant (HiTrap chelating HP Ni2+-NTA, Superdex 75); not …

What was measured:
Test in all cases: BLI; Octet RED96; His6-tagged sE2 (5 ug/ml, 600 s) loaded on Ni2+-NTA biosensors and stabilised with EDC/NHS, quenched with 1 M ethanolamine pH 8.0; association 300 s, dissociation 300 s; 2-fold dilution series of CD81 or HMAb (IgG format); steady-state analysis by the legend, global fit by the methods; values may reflect bivalent IgG binding
[1] = target: HEK293-derived soluble HCV E2 glycoprotein (sE2), genotype 1a H77c, residues 384 to 661, monomeric (hepatitis C virus genotype 1a, strain H77c) (UniProt P27958)
Chain of HEK293-derived soluble HCV E2 glycoprotein (sE2), genotype 1a H77c, residues 384 to 661, monomeric (hepatitis C virus genotype 1a, strain H77c) (P27958 384-661): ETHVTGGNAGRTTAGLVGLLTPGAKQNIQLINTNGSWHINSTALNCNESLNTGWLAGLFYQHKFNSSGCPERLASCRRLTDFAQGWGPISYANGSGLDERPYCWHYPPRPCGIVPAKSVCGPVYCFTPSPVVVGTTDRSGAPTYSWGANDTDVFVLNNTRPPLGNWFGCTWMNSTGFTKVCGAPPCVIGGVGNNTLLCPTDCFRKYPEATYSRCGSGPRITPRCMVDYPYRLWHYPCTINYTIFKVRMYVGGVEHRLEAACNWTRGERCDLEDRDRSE

[2] = target: Sf9-derived soluble HCV E2 glycoprotein (sE2), genotype 1a H77c, residues 384 to 661, monomeric (hepatitis C virus genotype 1a, strain H77c) (UniProt P27958)
Chain of Sf9-derived soluble HCV E2 glycoprotein (sE2), genotype 1a H77c, residues 384 to 661, monomeric (hepatitis C virus genotype 1a, strain H77c) (P27958 384-661): as above

[3] = target: T1, HEK293-derived soluble HCV E2 glycoprotein (sE2), genotype 1a H77c, residues 384 to 661, monomeric (hepatitis C virus genotype 1a, strain …, UniProt P27958 384-661, N-glycans at positions 417, 423, 430, 448, 476, 532, 540, 556, 576, 623 and 645; mostly complex- and high-mannose-type glycans); settings: both partners purified
T1 construct: HCV envelope glycoprotein E2 lacking the C-terminal transmembrane anchor, amino acids 384 to 661 of the strain 1a HCV H77c polyprotein; also called HEK293-derived sE2; HEK293 sE2; source: FreeStyle 293-F (HEK293-F) cells, transfected, secreted; purified from culture supernatant (HisTrap Ni2+-NTA, Superdex 200; monomer peak); not shown: His6, C-terminal, kept
T1 sequence (P27958 384-661): as above

[4] = target: T2, Sf9-derived soluble HCV E2 glycoprotein (sE2), genotype 1a H77c, residues 384 to 661, monomeric (hepatitis C virus genotype 1a, strain …, UniProt P27958 384-661, N-glycans at positions 417, 423, 430, 448, 476, 532, 540, 556, 576, 623 and 645; mainly paucimannose-type glycans, with or without one or two core fucose residues); settings: both partners purified
T2 construct: HCV envelope glycoprotein E2 lacking the C-terminal transmembrane anchor, amino acids 384 to 661 of the strain 1a HCV H77c polyprotein; also called Sf9-derived sE2; Sf9 sE2; source: Sf9 cells infected with recombinant baculovirus, secreted; purified from culture supernatant (HisTrap Ni2+-NTA, Superdex 200; monomer peak); not shown: His6, C-terminal, kept
T2 sequence (P27958 384-661): as above

| Binder | Kd [1] [nM] | Kd [2] [nM] | Kd [3] [nM] | Kd [4] [nM] |
| --- | --- | --- | --- | --- |
| B1 | 50 | 47 | – | – |
| B2 | – | – | 510 ± 22 | 440 ± 38 |
